Measurements published in the DeepSol protein solubility set.

Experiment: soluble on expression in E. coli; label from the status in PepcDB or PDB records

Row | Sequence | soluble on expression in E. coli
1 | MGSDKIHHHHHHMDNAIVTSPSGSSPAEAQAFLDAHPEIEAFDIVLTDANGVGRGKIVRRHELKSIFEGGRHMPISILGLDITGEDVHETGLIWTTGDGDLRAWPIPGTLVPLYGTNPPRGQVLMAMYHLDGQPMSSDPRLALARQVDILAAKGLYPAGAFELEFFLLANERDADGKVQPARAVLDGRVSGKTEVYSVDHLHGMEPLFSDIYAAAKAQGIPAETVISEYAPGQYELTLNYRKDVMRAADDLVMLKRLVRAQARRHGVTACFMAKPIEKYAGSGMHFHVSLQDKAGRNVFAEAGGESWSLPLLQGLGGLIQTMAESMLVFAPHANSWRRFVSQSYAPVAPTWGVNNRSVALRVPAGDAKNRRIEHRPSGVDANPYLIAATVLAGIVKGLDEGLDPGPETTGNGYEAAVTRTTMPADWRAAIEAAKASSFLKGALGEDLHRTFVAIKQSEYLRVARTVSELDYHLYLHEV | not soluble
2 | MVLLSVFLATGCTDTEQQPDTTTITEPDTTTTAQSETSKLIVSTTTSLEDTGLLEEIEAAFEDKYPGVDVLVISGGTGIAIQYGERGDADILLTHDKSREEEFVNNGFGTNRTEIAYNYFWIVGPENDPAGINGLNATEAFTRIMEEGQNDSDQVKFASRGDDSGTHAREKKIWESTGVSYGEINSSGEWYIESGRGMGETLLLSNEQNAYTLTDSGTFLAYTNEGRIQIVPIVTAGDELLNVYAAMPVNPEKHPNVNYEGAQNFVDFLVSSEGQEIIGNFGREQYGEPLFTPISEGLPS | not soluble
3 | MPIILEKGQKIDLTKGQPKVAKLQVGLGWDPIGQSGGFLSSLFGSKPNVDCDASVVMLEGDRFLNKNDLVYFGNKLSTCGSIIHSGDNLTGEGAGDDETIFVELHKVPSRINRLVFVVNIYDCVNRRQDFGMIRNAYIRIQNPQTGEELARYNLSDNYAGKTTLIAGEMYRHGSEWKFSAVGEGTQDKNLSEIVSRYQ | not soluble
4 | MNYRELMQKKNVRPYVLMARFGLEKENQRSTREGLLATTEHPTVFGNRSYHPYIQTDFSETQLELITPVANSGTEMLRFLDAIHDVARRSIPEDEMLWPLSMPPQLPTKDEEIKIAKLDQYDAVLYRRYLAKEYGKRKQMVSGIHFNFEYDQALIQQLYDEQSEVTDCKQFKTKVYMKVARNFLRYRWLITYLFGASPVSEDRYFRVYDDQPQEPVRSIRNSTYGYRNHDNVKVSYASLERYLEDIHRMVENGLLSEEKEFYAPVRLRGGKQMSDLPKTGIRYIELRNLDLNPFSRLGIVEDTVDFLHYFMLYLLWTDEKEEADEWVKTGDIFNEQVALGHPHETIKLIAEGDRIFSEMIDMLDALGIRKGKEVVGKYYQQLRNPQDTVSGKMWTIIQENSNSELGNIFGNQYQSMAFERPYQLAGFREMELSTQIFLFDAIQKGLEIEILDEQEQFLKLQHGEHIEYVKNANMTSKDNYVVPLIMENKTVTKKILSAAGFHVPGGEEFSSFIEAQEAHLRYANKAFVVKPKSTNYGLGITIFKEGASLEDFTEALRIAFKEDTAVLIEEFLPGTEYRFFVLDNDVKAIMLRVPANVTGDGKHTVEELVAAKNSDPLRGTNHRAPLELIQLNDLEKLMLKEQGLTIYSVPEKEQIVYLRENSNVSTGGDSIDMTDVIDDSYKQIAIEAVAALGAKICGIDLIIPDKDVKGTRDSLTYGIIEANFNPAMHMHVYPYAGQGRRLTMDVLKLLYPEVVQ | not soluble
5 | MSLNNRIIYVVSDSVGETAELVVKAALSQFNGSADDTHVRRIPYVEDIGTINEVISLAKADGGIICFTLVVPEIREYLIAEAEKANVLYYDIIGPLIDKMETAYGLTAKYEPGRVRQLDEDYFKKVEAIEFAVKYDDGRDPRGILKADIVLIGVSRTSKTPLSQYLAHKRLKVANVPIVPEVDPPEELFNVDPKKCIGLKISPDKLNHIRKERLKSLGLNDKAIYANINRIKEELEYFEKIVDRIGCQVVDVSNKAVEETANIIHHLKTKNIEGHHHHHH | soluble
6 | MSLAKSVFYYHRCQFDVKDKYGDLKQRITELYHQHKGRYGYRRVTAALKQLDCHHNHKLIAKLMHDMKLSAKIRRQKYRSYKGQQGKIAKNYLKRQFHADKPNKRWLTDITEFKVGDDKLYLSPILDCYNNEIVSYTLSKRPTYDLVGKMLEDALAKTKACRDNKLMLHSDQGWHYQMRLFGQVLKQHGIKQSMSRKGNCLDNALMEGFFGTLKCETIYIEKPNSIEGLEKQIHEYIHYYNHERIQLKLKGLSPVKYRTQSLIEGHHHHHH | not soluble
7 | MNKNSTSNKKNSKNKKKVDKLDLILNEFKNDIKNEKGENNQNDNKLLNGAIETNNNNNNNNNNSGNNRIHFDKEEIKEIKKKIILKEHVLEEQDNSSIRLLKNWPQLEKTYQTNPPCIPIDMIYGKDGKYPVGEILEYNNYNLSGQSLVEKKEREKLSIDYYEDLRKAAECHRQVRKHMQAFIKPGKKMIDIAQETERKTKELILAEKLKCGWGFPTGCSLNHCAAHYTPNYGDETVLKYDDVCKLDFGVHVNGYIIDCAFTIAFNEKYDNLIKATQDGTNTGIKEAGIDARMCDIGEAIQEAIESYEIELNQKIYPIKAISNLRGHSINKYIIHGGKCVPIVRQKEKNEIMEEGELFAIETFASTGKGYVNHENECSHYMRNPEKQFVPIRLNSAKTLLKVINDNFDTLPFCNRWLDDLGQTRHFMALKTLIDLNIVEPYPPLCDIKNSFTSQMEHTILLRPTCKEVLSRG | not soluble
8 | MGSDKIHHHHHHMKTNTSNQTTPQLATIKLFAMGCHIQISLYTTRLSAQYSQMTIDQQVAFLTSDVQQRLAYWEHIFSRFDDTSELMRLNNRGDQWSEVSSELFEVLQHAIHFVLKTQGLVTPTLLQPLWAAGYKHSFETLPKISMPSLPFTGLSAPSNVQDTTSANHANQQIGRIQLRQLTDGQHQVYLPTGMALDLNGYVKGWCAMQLAEHISRVHDWHIPCLVDMGGDIAIGIPRDPIDKPVTWGVAVAKPYFANSKHVQNDEDVAILKLSSGAVATSGQDYRRWWHDGRWQHHLIHPHDSRPVTSDVLTATVLATDTMTAEVYAKYCLLLGVKVAMAWLNKYHIAALLIDTDNKVMATSAIRPHLLQPNVVKSNVMSI | not soluble
9 | MNSEHPMTDRVVYRSLMADNLRWDALQLRDGDIIISAPSKSGLTWTQRLVSLLVFDGPDLPGPLSTVSPWLDQTIRPIEEVVATLDAQQHRRFIKTHTPLDGLVLDDRVSYICVGRDPRDAAVSMLYQSANMNEDRMRILHEAVVPFHERIAPPFAELGHARSPTEEFRDWMEGPNQPPPGIGFTHLKGIGTLANILHQLGTVWVRRHLPNVALFHYADYQADLAGELLRPARVLGIAATRDRARDLAQYATLDAMRSRASEIAPNTTDGIWHSDERFFRRGGSGDWQQFFTEAEHLRYYHRINQLAPPDLLAWAHEGRRGYDPAN | soluble
10 | MMLAGCGPIEPDYPNNKYTLTWYCTSDDGTCERVVELRRYDRASIQNNDLTIWDSQDPGGAIEALIVYSDSLPQHCDRIFYLVFFGHEIEEPRYCGNHYAFEIELSIPDEDPATSSRWVISAAPLD | not soluble
11 | MIYIGFYPKFNISGFSIGINTGVRFDVSSKLHYETSSASENINNEVKPRTYIRGTFDYSVFFKDNMAINVGLYIGYDWGFAWSDTYANADVVKNESFGNLDLGIQVGYRFGPKF | not soluble
12 | MGSDKIHHHHHHMDTDLLKTFLEVSRTRHFGKAAENLYLTRSAVSFRIKQLENILGLELFERLRNNIQPTPAGERMLGHAEAVLNAWERAKQDIILNQQHSAQLALSAGDNIWDAFLQGFLQPLHLGLEGVALRTDVLPATVMTRQLIERTLDIAITFDPPKLDGVILVKLAEVKLYLVSKQAGVKLTQTPTLPYIKVDWGTAFNITHAQDFTMLPLPVLHTSSARMALDFILNNGGCAFLPEALIKPYLDNGSLYVVDDAKCIHRHVYAAYWAENERLAYIEQAISILTTDKRTE | not soluble
13 | MGHHHHHHSHMRPRRPHQIADLFRPKDQIAYSDTSPFLILSEASLADLNSRLEKKVKATNFRPNIVISGCDVYAEDSWDELLIGDVELKRVMACSRCILTTVDPDTGVMSRKEPLETLKSYRQCDPSERKLYGKSPLFGQYFVLENPGTIKVGDPVYLLGQ | not soluble
14 | MGSDKIHHHHHHMAIDLLNIARTGVLASQSQLGVTSNNIANANTVGYHRQVATQTTLDSQRLGSSFYGTGTYVSDVKRIYNDYAARELRIGQTTLSAAEASYGKLSELDQIFSQIGKVVPQSLTDLFAGLNSLADLPADLGIRSSTLNDAKQLANSLNQMQSTLNGQLNQTNDQITGMTKRINEISTELANLNLELMKSPNQDPILLDKQDALVQELSQYAQVNVIPLENGAKSIMLGGSIMLVSGEVAMSMSTATGDPFPNELQLMSSIGSQSVKADPSKLGGQLGALFEYRDQTLVPASLELDQLALGVADSFNKLQAQGFDLNGQVGANMFKDINDPLMSLGRVGGFTDNTGNATLGVNIDDTSALTGGSYELSFTAPSTYELRDTQRARLLRLP | not soluble
15 | MTAPISLRLVVEARDLPPMLPDVLRERFDRGETGVAWAPEHDASVGAPLGVLGGPEATAWPFAISEPPPVNVPALCAVGPCWWYPSFGAVIGNDGALYNATVGEARHGSADLSAIPGVASGGTRLVPPQDAPVLDGGAVFMPWGAGFNYGHFVIDALPSILALEQAGLLHDTPLLAPRLTDWQRELIAMATPGVRLQEVDAPAVRLGRAVFATSMDHFLHHPNGLLATLAERVTANAPKGAGARRVYLSRRGQSMRVMVGEAAFERALQARGFVIVRPETLGARAQVALMRDAEIIVGASGAALANAVFLPRGARVIEIQPTNFTSQWVRAACRQVGVEWRGYVCASPCPAHAAPLLARLRRGFKFAFRPDLDDLLSFVDAALLEHHHHHH | not soluble
16 | MGSDKIHHHHHHMVKSANLLHVSQPAVTKTVRELEEILGVSLFEREGRGIRITRYGEVFLRHAGATLAALRHAVDSVSQEAAKAGPPVRVGALPTVATRIMPQAMTAFLAENTGSPIKIVTGDNSVLLEQLRIGELDLVVGRLAAPEKMAGFSFEHLYSEPVVFVVRAGHPLLTGETAPFERMRDFPVLMPTRNSIIRPLVDYFLIANGVATLPNQIETVSDSFGRAFLKISDAVWVISEGVVAGDIAEGTICALPIDCSPTRGPVGLTVRADAMATLPQSLLMQAIRDAAAAIMP | not soluble
17 | MAGLIPQSFIDDLLNRTDIVEVVSSRIQLKKTGKNYSACCPFHKEKTPSFTVSPDKQFYYCFGCGAGGNALGFVMDHDQLEFPQAVEELAKRAGMDVPREERGGRGHTPRQPTDSPLYPLLSAAAEFYKQALKSHPARKAAVNYLKGRGLTGEIARDFGLGFAPPGWDNLLKHLGGDNLQLKAMLDAGLLVENSDTGKRYDRFRDRVMFPIRDSRGRIIAFGGRVLGDDKPKYLNSPETPVFHKGQELYGLYEARQKNRDLDEIMVVEGYMDVIALAQQGIRNAVATLGTATSEEHIKRLFRLVPSILFCFDGDQAGRKAAWRALESVLPNLQDGKRVRFLFLPEGEDPDSLVRAEGEDAFRARITQQAQPLAEYFFQQLMLEADPATLEGKAHLATLAAPLLEKIPGNNLRLLMRQRLSEITGLSGENIGQLAHHSPPPSSMDHGASGVLDGDDYFAASAYYENEPSHAPFDAAPGYVEAQPRKSWNKDKKPWDGKKWDGKKKWDKGGRGDFKAPQRTPVSVESTTLNALRTLLHHPQLALKVDDAGTLAREQDTYAQLLVSLLEALQKNPRQSSMQLIARWHGTPQGRLLQALGEKEWLIVQENLEKQFFDTITKLSESQRFGEREERLRSVMQKSYSELTDEEKALLREHYSVAASSP | not soluble
18 | SNAMIKRPIHMSHDFLAEVLDDESIVVDATMGNGNDTAFLAGLSKKVYAFDVQEQALGKTSQRLSDLGIENTELILDGHENLDHYVREPIRAAIFNLGYLPSADKSVITKPHTTLEAIEKILDRLEVGGRLAIMIYYGHDGGDMEKDAVLEYVIGLDQRVFTAMLYQPLNQINTPPFLVMLEKLQ | soluble
19 | MTMSELGSLFEAGYHDILQLLAGQGKSPSGPPFARYFGMSAGTFEVEFGFPVEGGVEGSGRVVTGLTPSGKAASSLYIGPYGEIEAVYDALMKWVDDNGFDLSGEAYEIYLDNPAETAPDQLRTRVSLEHHHHHH | not soluble
